Test [1] deals with pre-existing anti-drug antibodies (ADA) present in human sera. The test can be described thus: pre-existing ADA ELISA, scFv coated, human sera unspiked vs spiked. (In general: ELISA stands for enzyme-linked immunosorbent assay.)
Test [2] deals with T1, human a-Mesothelin (Acro Biosystems; MSN_H5223) (human, UniProt Q13421 296-580, limits assumed).
T1 construct: Bought protein immobilised on the SPR chip; Printed as 'a-Mesothelin' but used as the antigen for the anti-MSLN scFvs; also called Human MSLN; MSLN
T1 sequence (Q13421 other isoform, or with tags, fused parts or gaps limits assumed): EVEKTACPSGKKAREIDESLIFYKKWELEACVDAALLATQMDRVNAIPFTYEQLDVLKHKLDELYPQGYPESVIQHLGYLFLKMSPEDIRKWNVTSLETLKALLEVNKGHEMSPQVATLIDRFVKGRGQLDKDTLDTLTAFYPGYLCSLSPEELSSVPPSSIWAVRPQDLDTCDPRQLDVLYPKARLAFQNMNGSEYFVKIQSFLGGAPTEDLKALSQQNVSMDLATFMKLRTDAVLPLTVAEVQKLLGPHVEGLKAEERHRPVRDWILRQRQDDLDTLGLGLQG
The test can be described thus: SPR, mesothelin immobilised, scFv analyte, 1:1 fit. In general terms: In SPR one partner is held on a chip, and binding of the other changes the refractive index at the surface.

Substitutions are numbered along the chain they refer to. Names may count otherwise.

B1: PRO3347 (scFv 54-21-H03-sc01_(T101S, T146S)) (scFv)
scFv: DIQMTQSPSSLSASVGDRVTITCQASESIYSSLAWYQQKPGKAPKLLIYLASTLASGVPSRFSGSGSGTDFTLTISSLQPEDFATYYCQSTDYTTSTHRNSFGTGTKVTVLGGGGGSGGGGSGGGGSGGGGSEVQLVESGGGLVQPGGSLRLSCAASGFSFSTTYYMCWVRQAPGKGLEWIGCTNTASSVRTYYATWAKGRFTISRDNSKNTVYLQMNSLRAEDSAVYYCARDMGFADYALNLWGQGTLVSVSS
notes: PRO1922 variant; VH substitutions, AHo numbering; also called PRO1922 T101S-T146S
In test [1], B1 showed a Mean No of serum samples >30% inhibition (30% CCP) with SCP (serum samples) of 3 and a No of serum samples >30% inhibition (30% CCP) without SCP (serum samples) of 3. For the same molecule, in test [2], the Kd is 1.7 nM and the n-fold to wt came to 0.9 fold.

B2: PRO3348 (scFv 54-21-H03-sc01_(T101K, T146D)) (scFv)
scFv: B1 scFv with S225K, S251D
notes: PRO1922 variant; VH substitutions, AHo numbering; also called PRO1922 T101K-T146D
In test [1], B2 returned a Mean No of serum samples >30% inhibition (30% CCP) with SCP (serum samples) of 0 and a No of serum samples >30% inhibition (30% CCP) without SCP (serum samples) of 0. For the same molecule, in test [2], the affinity, expressed as Kd, was 2.5 nM and the n-fold to wt amounted to 1.4 fold.

B3: PRO3349 (scFv 54-21-H03-sc01_(T101R, T146E)) (scFv)
scFv: B1 scFv with S225R, S251E
notes: PRO1922 variant; VH substitutions, AHo numbering; also called PRO1922 T101R-T146E
B3: in test [1], the Mean No of serum samples >30% inhibition (30% CCP) with SCP (serum samples) came out at 0 and the No of serum samples >30% inhibition (30% CCP) without SCP (serum samples) was found to be 0. Also, in test [2], the Kd came to 1.9 nM and the n-fold to wt was 1.1 fold.

Broadly, the Kd is the constant that tells how readily two partners part at equilibrium. A higher Kd goes with lower affinity.

Values taken from patent US20250382363A1 (NUMAB THERAPEUTICS, published 2025).
